Assay [1] has as its target LRP6 of Super TopFlash (STF, HEK293) cells (UniProt O75581 20-1613, limits assumed). Kind of assay: cell-based or functional assay.
The target of assay [2] is T1, human LRP6 on huLRP6-expressing BaF3 cells (human, UniProt O75581 20-1613).
T1 construct: whole, on cells; also called Lipoprotein receptor like protein 6
Kind of assay: FACS LRP6 binding assay, competition with anti-LRP6 antibody (FIG. 50).

For orientation: IC50 means the concentration that inhibits the measured activity by half. Lower therefore signals greater potency in that assay.

T1 sequence (O75581 20-1613): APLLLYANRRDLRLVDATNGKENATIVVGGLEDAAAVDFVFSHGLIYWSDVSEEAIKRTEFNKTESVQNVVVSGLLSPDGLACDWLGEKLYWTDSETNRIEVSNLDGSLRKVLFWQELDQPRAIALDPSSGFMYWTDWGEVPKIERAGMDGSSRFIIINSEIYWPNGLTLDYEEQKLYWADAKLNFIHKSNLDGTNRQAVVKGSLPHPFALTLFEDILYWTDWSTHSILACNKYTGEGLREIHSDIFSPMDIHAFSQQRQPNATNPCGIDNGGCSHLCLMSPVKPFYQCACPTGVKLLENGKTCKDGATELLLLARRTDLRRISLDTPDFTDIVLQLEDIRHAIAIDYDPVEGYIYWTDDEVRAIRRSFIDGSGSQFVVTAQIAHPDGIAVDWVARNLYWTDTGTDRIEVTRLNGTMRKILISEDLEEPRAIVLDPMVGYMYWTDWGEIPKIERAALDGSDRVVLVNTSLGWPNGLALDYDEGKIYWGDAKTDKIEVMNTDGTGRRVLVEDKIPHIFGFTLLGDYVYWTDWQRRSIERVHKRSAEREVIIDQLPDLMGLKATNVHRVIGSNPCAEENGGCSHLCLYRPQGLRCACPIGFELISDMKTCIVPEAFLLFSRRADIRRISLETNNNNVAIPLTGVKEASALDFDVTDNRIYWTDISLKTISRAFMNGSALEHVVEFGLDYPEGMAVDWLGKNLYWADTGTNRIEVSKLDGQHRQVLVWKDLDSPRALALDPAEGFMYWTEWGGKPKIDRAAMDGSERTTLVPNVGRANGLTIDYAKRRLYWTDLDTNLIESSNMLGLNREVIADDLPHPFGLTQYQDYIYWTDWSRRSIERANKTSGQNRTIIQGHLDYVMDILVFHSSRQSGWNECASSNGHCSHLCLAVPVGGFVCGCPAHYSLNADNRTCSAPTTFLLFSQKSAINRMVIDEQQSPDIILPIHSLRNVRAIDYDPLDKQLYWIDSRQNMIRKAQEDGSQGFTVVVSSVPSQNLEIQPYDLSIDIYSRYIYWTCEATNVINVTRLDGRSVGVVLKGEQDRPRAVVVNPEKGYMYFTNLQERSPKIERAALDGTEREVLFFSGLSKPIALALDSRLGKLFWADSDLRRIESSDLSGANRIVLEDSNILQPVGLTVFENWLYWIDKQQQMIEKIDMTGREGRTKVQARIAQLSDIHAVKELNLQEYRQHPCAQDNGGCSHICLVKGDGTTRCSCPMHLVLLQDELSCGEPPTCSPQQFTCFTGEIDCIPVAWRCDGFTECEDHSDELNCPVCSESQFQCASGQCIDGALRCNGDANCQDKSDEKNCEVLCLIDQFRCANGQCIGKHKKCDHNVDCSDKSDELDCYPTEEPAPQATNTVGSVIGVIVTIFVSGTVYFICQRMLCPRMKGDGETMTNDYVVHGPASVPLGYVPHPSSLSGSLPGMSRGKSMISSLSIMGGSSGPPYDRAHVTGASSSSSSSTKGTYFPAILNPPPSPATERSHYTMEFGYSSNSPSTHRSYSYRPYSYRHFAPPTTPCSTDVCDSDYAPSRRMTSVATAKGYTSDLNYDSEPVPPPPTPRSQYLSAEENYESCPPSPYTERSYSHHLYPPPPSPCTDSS
Sequence of LRP6 of Super TopFlash (STF, HEK293) cells (O75581 20-1613 limits assumed): as the sequence (O75581 20-1613) above

B1: untagged murine DKK2-C2 from E. coli (ligand)
chain: GSMPHIKGHEGDPCLRSSDCIDGFCCARHFWTKICKPVLHQGEVCTKQRKKGSHGLEIFQRCDCAKGLSCKVWKDATYSSKARLHVCQKI
notes: also called E. coli DKK2 C2; non-PEGylated untagged DKK2-C2
With B1, in assay [1], the “IC50 in the Wnt signaling Super Top Flash (STF) activity assay” value was around 20 nM. In addition, the IC50 in assay [2] was found to be 20 nM.

B2: PEGylated untagged murine DKK2-C2 from E. coli (ligand)
chain: GSMPHIKGHEGDPCLRSSDCIDGFCCARHFWTKICKPVLHQGEVCTKQRKKGSHGLEIFQRCDCAKGLSCKVWKDATYSSKARLHVCQKI
modifications: monoPEGylated with 20k-PEG-2-methyl proprionaldehyde and sodium cyanoborohydride; site not stated
notes: also called monoPEGylated DKK2 C2; PEGylated version of DKK2 C2
Turning to B2, the IC50 in assay [2] worked out at 326 nM.

Values taken from US20200270335A1 (Biogen, published 2020).
